Source: article PMC3696110, “Hsp70 Oligomerization Is Mediated by an Interaction between the Interdomain Linker and the Substrate-Binding Domain” (PLoS ONE, 2013)

Target: T1, SBD641 (human Hsp70 residues 384-641) (human, UniProt P0DMV8 384-641)
T1 construct: Thrombin cleavage of the His tag is stated as >99% for all variants; also called full-length SBD; not shown: His6, N-terminal, cleaved
Experiment: native MS; nESI-MS of SBD641 in the presence of NR peptide at a 1:1 molar ratio; 150 mM ammonium acetate, pH 7.4
Details: both partners purified

T1 sequence (P0DMV8 384-641): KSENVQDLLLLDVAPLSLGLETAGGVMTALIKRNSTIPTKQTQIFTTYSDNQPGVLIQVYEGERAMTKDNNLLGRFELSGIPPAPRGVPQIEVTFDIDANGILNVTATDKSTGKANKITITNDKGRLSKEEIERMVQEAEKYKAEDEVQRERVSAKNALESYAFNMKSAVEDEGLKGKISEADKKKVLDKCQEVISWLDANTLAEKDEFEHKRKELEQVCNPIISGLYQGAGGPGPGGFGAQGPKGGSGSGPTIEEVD

B1: NR peptide (NRLLLTG), non-dansylated (peptide)
peptide: NRLLLTG
notes: model Hsp70 substrate peptide; the peptide of that experiment may have carried the dansyl group (surmise); also called ND-NR; source: synthetic peptide (Genemed Synthesis Inc.)
- binding result: binds
